According to US20110039331A1 (OSAKA UNIVERSITY, published 2011):
Blank lines part the entries; values can stand above or below the molecule they belong to.

Experiments:
[1] = target: Flag-tagged Fn (Flag-Fn) (human) (UniProt P02751); test: SPR (Biacore), Flag-Fn on the chip, M2 antibody flowed over
[2] = target: P20.1 antibody (monoclonal antibody produced by mouse-mouse hybridoma P20.1, FERM BP-11061); test: competitive dissociation ELISA: P20.1 antibody bound to coated P4(20)-Fn, free P4(C8) peptide added at the final washing step for 30 minutes; displaced partner P4(20)-Fn
[3] = target: P20.1 antibody (monoclonal antibody produced by mouse-mouse hybridoma P20.1, FERM BP-11061); test: competitive elution of the P4×3-tagged hGH fusion protein from P20.1 antibody-Sepharose, SDS gel
[4] = target: P20.1 antibody (monoclonal antibody produced by mouse-mouse hybridoma P20.1, FERM BP-11061); test: competitive dissociation ELISA: free peptide added for 30 minutes to P20.1 antibody bound on coated P4(20)-Fn
[5] = target: hGH-BAS-γC-P4×5, human growth factor/human fibrinogen γ chain C domain fusion protein with 5 repeats of the … (human, UniProt P01241 27-217; P02679 169-437); test: SPR (Biacore X-100), P20.1 antibody-immobilized chip, fusion protein flowed over
[6] = target: T1, hGH-BAS-γC-P4×3, human growth factor/human fibrinogen γ chain C domain fusion protein with 3 repeats of the … (human, UniProt P01241 27-217; P02679 169-437); test: as above
T1 construct: also called P4×3-tagged hGH fusion protein

[7] = target: T2, tag peptide/F-spondin fusion protein (P4×3, TEV protease cleavage sequence, N-terminal 146-amino-acid domain …); test: affinity purification from culture supernatant on P20.1 antibody-Sepharose, elution with 40% propylene glycol and 1 M NaCl, SDS gel electrophoresis
T2 construct: Secreted from HEK293T cells; also called recombinant F-spondin protein
T2 chain: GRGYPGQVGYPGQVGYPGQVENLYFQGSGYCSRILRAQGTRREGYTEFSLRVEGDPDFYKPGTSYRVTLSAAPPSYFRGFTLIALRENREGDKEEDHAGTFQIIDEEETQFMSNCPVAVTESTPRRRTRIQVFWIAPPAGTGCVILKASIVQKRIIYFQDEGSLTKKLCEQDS
Experimental: Washing with TBS and eluting with a buffer solution containing 40% propylene glycol and 1 M NaCl were performed, and the resulting effluent was subjected to SDS gel electrophoresis.

[8] = target: T3, P4(C8) peptide (8-residue peptide PRGYPGQV) (human); test: X-ray crystallography of the complex
T3 peptide: PRGYPGQV

Flag-tagged Fn (Flag-Fn) (human), sequence (P02751 other isoform, or with tags, fused parts or gaps limits assumed): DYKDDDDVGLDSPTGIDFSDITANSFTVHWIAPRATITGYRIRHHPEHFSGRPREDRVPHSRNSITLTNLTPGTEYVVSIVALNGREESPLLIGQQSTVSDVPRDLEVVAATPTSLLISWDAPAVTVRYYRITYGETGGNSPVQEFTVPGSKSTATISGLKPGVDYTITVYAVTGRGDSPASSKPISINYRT

Molecule: PRGYPGQV [P4(C8) peptide (8-residue peptide PRGYPGQV)]
IC50 (read off the curve) [2]: 10 µg/mL | peptide concentration that elutes the tagged fusion protein [3]: > 0.1 mg/mL | peptide concentration at which almost complete dissociation was confirmed [4]: 0.1 mg/mL

B2: Fab fragment of the P20.1 antibody (Fab, V domains shown)
VH: QIQLVQSGPEVQKPGETVRISCKASGYTFTTAGMQWVQKMPGKSLKWIGWINTRSGVPKYAEDFKGRFAFSLETSASIAYLHINNLKNEDTATYFCAREGPGFVYWGQGTLVTVSA
VL: QTVVTQESALTTSPGETVTLTCRSSTGVVTTSNYANWVQEKPDHLFTGLIVGTNNRVPGVPPRFSGSLIGDKAALTITGAQTEDEAIYFCALWYSNHWVFGGGTKLTVL
notes: Made by papain digestion of the purified IgG1/lambda antibody; also called P20.1 antibody Fab fragment
binding result [8]: binds

The remaining lines, values ahead:

Kd [1]: 2.7 nM | koff [1]: 0.000395 s⁻¹ | kon [1]: 146000 M⁻¹ s⁻¹
Molecule: commercially available anti-Flag antibody M2

fold of the maximum binding capacity against the fusion protein with one repeat [5]: ≥ 4 fold | fold of the maximum binding capacity against the fusion protein with one repeat [6]: ≥ 4 fold | binding result [7]: binds
B1: P20.1 antibody (monoclonal antibody produced by mouse-mouse hybridoma P20.1, FERM BP-11061) (antibody, mouse IgG1, V domains shown)
VH: QIQLVQSGPEVQKPGETVRISCKASGYTFTTAGMQWVQKMPGKSLKWIGWINTRSGVPKYAEDFKGRFAFSLETSASIAYLHINNLKNEDTATYFCAREGPGFVYWGQGTLVTVSA
VL: QTVVTQESALTTSPGETVTLTCRSSTGVVTTSNYANWVQEKPDHLFTGLIVGTNNRVPGVPPRFSGSLIGDKAALTITGAQTEDEAIYFCALWYSNHWVFGGGTKLTVL
notes: Biotinylated in the sandwich ELISA of 7-2-1 and coupled to CNBr-Sepharose in the pull-down and purification experiments; also called P20.1 Ab; monoclonal P20.1 antibody
